Assay [1] deals with T1, human recombinant TGF-b1 (human, UniProt P01137 279-390).
T1 construct: also called TGF-β1; hTGF-β1
Description: SPR (Biacore T200), 10 nM Fab over amine-coupled TGFb1 (492 RUs); reference of the ranking. Here is the method: FIG. 27 provides Biacore analysis of the new mutant variant antibodies and compares the new mutants versus parent variant 13A1-2F and versus mu13A1. Selected variants have different monovalent (huIgG1 stabilized Fab format). Biacore binding kinetics, range from lower to higher than the parental mouse 13A1 (mu13A1, hybrid with mouse VK/VH and huCK/huCH1). The data presented is ka, kd and apparent KD. TGFb1 (chip): 492 Rus, Fabs: 10 nM, Flow rate: 30 ul/min, Contact time: 510s, Diss. Time: 600s. Quality: Chi(2)<=1% Rmax and U score <=5. Data is presented for mutant variant antibodies 13A1_AF, 13A1_AG, 13A1_AH, 13A1_BF, 13A1_BG, 13A1_BH, 13A1_CF, 13A1_CG, 13A1_CH, 13A1_DF, 13A1_DG, 13A1_DH, 13A1_EF, 13A1_EG and 13A1_EH.
SPR binding analysis of Fabs: Experiments were performed using the Biacore T200 equipped with the Series S sensor chip CMS (GE Healthcare, cat. #BR-1005-30). The instrument temperature was set at 25° C. for all steps in the analysis while the compartment temperature was set at 10° C. All the assays were performed using the running buffer HBS-EP+ 1×. Recombinant TGF-β1 (Biocat, cat. #TG1-H4212-50 ug-AC) was immobilized with the standard amine-coupling chemistry using a solution of the ligand at 1 ug/mL in acetate, pH 4.5. Recombinant TGF-β1 was injected for several minutes to achieve a target density of 492 RUs. […]
On the technique in general: Surface plasmon resonance follows binding to a sensor surface in real time, without labels.

Assay [2] has as its target T1, human recombinant TGF-b1. Description: ELISA, soluble scFv on plate-coated TGFb isoforms. Here is the method:
(§1) To perform the ELISA a 96-well maxisorp Nunc-immunoplate (Thermo Scientific, cat. #2022-10) was coated with 50 μl/well of human recombinant TGF-b1 (Acrobiosystems, cat. #TG1-H4212), TGF-b2 (R&D Systems, cat. #302-B2-010) and human recombinant TGF-b3 (Shenandoah Biotechnology, cat. #100-109) at 500 ng/ml in PBS at 4° C. overnight. Wells were blocked by the direct addition of 230 μl of block solution (5% skimmed milk/0.05% Tween20 in PBS) without first washing the plate. Blocking was carried out for 45 min with gentle agitation. Concurrently, the bacterial cultures containing the expressed scFv and the rescued phage were blocked by the direct addition of 120 μl of block solution. The blocked maxisorp plate was washed 3× with PBST (PBS+0.1% Tween20) before applying 150 μl of blocked scFv or phage culture to the wells. Incubation was performed for 1 h at room temperature with gentle agitation before washing of the wells with 4×PBST.
For the scFv ELISA, 100 μl of primary mouse 9E10 anti-cmyc Ab diluted 1/1000 in PBS+1% BSA was added to wells, followed by a 1 h incubation at room temperature with gentle agitation. […] The ELISA was developed by the addition of 100 μl/well of TMB substrate (ThermoFischer Scientific, cat. #34021), stabilized with 50 μl/well of stop solution (2N sulfuric acid) and absorbance signals read at 450 nm and 620 nm.

In assay [3] the target is T1, human recombinant TGF-b1. Briefly: TGFb specificity ELISA, HEK293-6E supernatant. (An ELISA detects its analyte on a solid surface through an enzyme-linked reagent.)
Assay [4] has as its target T1, human recombinant TGF-b1. Briefly: phage ELISA on plate-coated TGF-b1, anti-fd detection. Here is the method: as §1
For the phage ELISA, 100 μl of primary rabbit anti-fd bacteriophage Ab (Sigma, cat. #B7786) diluted 1/1000 in PBS+1% BSA was added to wells followed by a 1 h incubation at room temperature with gentle agitation. The plate was washed 4× with PBST before the addition of 100 μl of secondary mouse anti-rabbit IgG (Y-chain specific) HRP conjugate (Sigma, cat. #A1949) diluted 1/15000 in PBS+1% BSA. […]

T1 sequence (P01137 279-390 limits assumed): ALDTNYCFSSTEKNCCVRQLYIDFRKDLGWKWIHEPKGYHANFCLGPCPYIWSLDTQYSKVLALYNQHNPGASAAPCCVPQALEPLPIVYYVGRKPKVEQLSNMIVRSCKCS

B1: 13A1 mouse parental hybrid stabilized Fab (mu13A1) (Fab, V domains shown)
VH: EVQLQQSGTVLARPGASVKMSCKTSGYTFTNYWMHWVRQRPGQGLEWIGTIYPGNSDTNYNQKFKDKAKLTAVTSATTAYMELSSLTNEDSAVYFCTREDSRSLYYNGWDYFDYWGQGTTLTVSS
VL: not shown
notes: also called parental mouse Fab [chimeric, mVHhCH1/mVKhCK]; LCR13A1_VK(murine) + LCR13A1_VH(murine)
In the case of B1, the binding result in the assay with human recombinant TGF-b1 [1] was “binds”.

B2: 13A1_GLv1_scFv (CDR-grafted scFv, IGKV7-3*01/IGHV1-46*01) (scFv)
scFv: DIVLTQSPASLAVSPGQRATITCRASESVDNYGISFLNWYQQKPGQPPKLLIYAASNQGSGVPARFSGSGSGTDFTLTINPVEADDTANYYCQQSKEVPRTFGGGTKLEIKRTVAARQEGGSGEGGSGESNAAAQVQLVQSGAEVKKPGASVKVSCKASGYTFTNYWMHWVRQAPGQGLEWIGTIYPGNSDTNYNQKFKGRVTMTRDTSTSTVYMELSSLRSEDTAVYYCTREDSRSLYYNGWDYFDYWGQGTLVTVSSASTKAS
notes: Orientation VK-linker-VH; expressed in E. coli from pCHV101; also called LCR13A1_Glv1 scFv
On to B2, for which the binding result in the assay with human recombinant TGF-b1 [2] is “binds”.

B3: 13A1_Glv1 (graft) human IgG1 (antibody, V domains shown)
VH: QVQLVQSGAEVKKPGASVKVSCKASGYTFTNYWMHWVRQAPGQGLEWIGTIYPGNSDTNYNQKFKGRVTMTRDTSTSTVYMELSSLRSEDTAVYYCTREDSRSLYYNGWDYFDYWGQGTLVTVSS
VL: DIVLTQSPASLAVSPGQRATITCRASESVDNYGISFLNWYQQKPGQPPKLLIYAASNQGSGVPARFSGSGSGTDFTLTINPVEADDTANYYCQQSKEVPRTFGGGTKVEIK
notes: also called LCR13A1_GLv1; grafted human IgG1 13A1
In the case of B3, the binding result in the assay with human recombinant TGF-b1 [3] is recorded as “binds”.

B4: LCR13A1 Phage (murine 13A1 scFv fused to pIII on filamentous phage) (scFv)
scFv: DIVLTQSPASLAVSLGQRATISCRASESVDNYGISFLNWFQQKPGQPPKLLIYAASNQGSGVPARFSGSGSGTDFSLNIHPMEEDDTGMYFCQQSKEVPRTFGGGTKLEIKRTVAARQEGGSGEGGSGESNAAAEVQLQQSGTVLARPGASVKMSCKTSGYTFTNYWMHWVRQRPGQGLEWIGTIYPGNSDTNYNQKFKDKAKLTAVTSATTAYMELSSLTNEDSAVYFCTREDSRSLYYNGWDYFDYWGQGTLVTVSSASTKAS
notes: not shown: pIII coat protein of filamentous bacteriophage (fusion partner from phagemid pCHV101)
Regarding B4, in the assay with human recombinant TGF-b1 [4], the binding result is “binds”.
